Molecular target: human IgE with the M1′ sequence (long form of membrane IgE) expressed on transduced BJAB or Daudi cells (human) (UniProt P01854)
Assay: number printed in the titration panel; FIG. 3M calls these numbers 'Scatchard Results' (BJAB-Long cells)

Chain of human IgE with the M1′ sequence (long form of membrane IgE) expressed on transduced BJAB or Daudi cells (human) (P01854 116-546 I515L limits assumed): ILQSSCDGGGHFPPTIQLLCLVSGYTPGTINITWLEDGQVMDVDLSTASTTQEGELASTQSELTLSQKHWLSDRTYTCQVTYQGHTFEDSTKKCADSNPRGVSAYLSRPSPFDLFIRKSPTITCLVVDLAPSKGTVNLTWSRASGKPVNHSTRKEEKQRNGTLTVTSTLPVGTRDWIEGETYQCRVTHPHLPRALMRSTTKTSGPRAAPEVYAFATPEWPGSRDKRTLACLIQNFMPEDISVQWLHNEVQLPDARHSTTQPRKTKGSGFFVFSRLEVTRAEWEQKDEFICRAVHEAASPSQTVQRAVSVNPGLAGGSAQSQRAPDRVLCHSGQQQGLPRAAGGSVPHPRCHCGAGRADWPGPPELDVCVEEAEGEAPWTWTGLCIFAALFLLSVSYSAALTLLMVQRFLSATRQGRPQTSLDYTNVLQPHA

anti-human IgE antibody MAE11
Kd: 0.04 nM

Reference: patent US20120149881A1
